From IntAct's records for PubMed 21532587

B1: Casein kinase I homolog HRR25 (Saccharomyces cerevisiae), P29295 (parent)
chain: MDLRVGRKFRIGRKIGSGSFGDIYHGTNLISGEEVAIKLESIRSRHPQLDYESRVYRYLSGGVGIPFIRWFGREGEYNAMVIDLLGPSLEDLFNYCHRRFSFKTVIMLALQMFCRIQYIHGRSFIHRDIKPDNFLMGVGRRGSTVHVIDFGLSKKYRDFNTHRHIPYRENKSLTGTARYASVNTHLGIEQSRRDDLESLGYVLIYFCKGSLPWQGLKATTKKQKYDRIMEKKLNVSVETLCSGLPLEFQEYMAYCKNLKFDEKPDYLFLARLFKDLSIKLEYHNDHLFDWTMLRYTKAMVEKQRDLLIEKGDLNANSNAASASNSTDNKSETFNKIKLLAMKKFPTHFHYYKNEDKHNPSPEEIKQQTILNNNAASSLPEELLNALDKGMENLRQQQPQQQVQSSQPQPQPQQLQQQPNGQRPNYYPEPLLQQQQRDSQEQQQQVPMATTRATQYPPQINSNNFNTNQASVPPQMRSNPQQPPQDKPAGQSIWL
partner: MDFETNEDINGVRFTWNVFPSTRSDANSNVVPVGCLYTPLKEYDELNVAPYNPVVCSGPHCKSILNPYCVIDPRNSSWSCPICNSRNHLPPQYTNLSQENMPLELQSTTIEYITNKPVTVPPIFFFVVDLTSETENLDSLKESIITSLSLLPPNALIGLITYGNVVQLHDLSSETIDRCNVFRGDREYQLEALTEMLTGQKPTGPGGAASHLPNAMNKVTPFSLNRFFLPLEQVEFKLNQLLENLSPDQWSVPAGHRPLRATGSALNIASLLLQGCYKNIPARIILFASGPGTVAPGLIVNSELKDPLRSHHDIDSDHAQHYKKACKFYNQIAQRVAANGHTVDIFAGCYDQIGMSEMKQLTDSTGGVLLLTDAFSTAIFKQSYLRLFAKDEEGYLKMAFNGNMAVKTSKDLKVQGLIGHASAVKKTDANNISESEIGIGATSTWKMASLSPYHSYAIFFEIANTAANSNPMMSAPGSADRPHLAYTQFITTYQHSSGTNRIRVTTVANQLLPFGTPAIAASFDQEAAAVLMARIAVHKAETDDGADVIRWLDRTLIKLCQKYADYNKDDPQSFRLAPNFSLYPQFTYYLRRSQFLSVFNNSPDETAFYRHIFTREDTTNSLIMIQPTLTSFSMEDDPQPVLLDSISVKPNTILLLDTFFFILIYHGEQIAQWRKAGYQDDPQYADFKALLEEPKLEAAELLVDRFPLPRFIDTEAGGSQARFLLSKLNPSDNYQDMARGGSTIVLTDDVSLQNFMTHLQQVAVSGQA
B2: Casein kinase I homolog HRR25 (Saccharomyces cerevisiae), P29295 (parent)
chain: B1 chain
partner: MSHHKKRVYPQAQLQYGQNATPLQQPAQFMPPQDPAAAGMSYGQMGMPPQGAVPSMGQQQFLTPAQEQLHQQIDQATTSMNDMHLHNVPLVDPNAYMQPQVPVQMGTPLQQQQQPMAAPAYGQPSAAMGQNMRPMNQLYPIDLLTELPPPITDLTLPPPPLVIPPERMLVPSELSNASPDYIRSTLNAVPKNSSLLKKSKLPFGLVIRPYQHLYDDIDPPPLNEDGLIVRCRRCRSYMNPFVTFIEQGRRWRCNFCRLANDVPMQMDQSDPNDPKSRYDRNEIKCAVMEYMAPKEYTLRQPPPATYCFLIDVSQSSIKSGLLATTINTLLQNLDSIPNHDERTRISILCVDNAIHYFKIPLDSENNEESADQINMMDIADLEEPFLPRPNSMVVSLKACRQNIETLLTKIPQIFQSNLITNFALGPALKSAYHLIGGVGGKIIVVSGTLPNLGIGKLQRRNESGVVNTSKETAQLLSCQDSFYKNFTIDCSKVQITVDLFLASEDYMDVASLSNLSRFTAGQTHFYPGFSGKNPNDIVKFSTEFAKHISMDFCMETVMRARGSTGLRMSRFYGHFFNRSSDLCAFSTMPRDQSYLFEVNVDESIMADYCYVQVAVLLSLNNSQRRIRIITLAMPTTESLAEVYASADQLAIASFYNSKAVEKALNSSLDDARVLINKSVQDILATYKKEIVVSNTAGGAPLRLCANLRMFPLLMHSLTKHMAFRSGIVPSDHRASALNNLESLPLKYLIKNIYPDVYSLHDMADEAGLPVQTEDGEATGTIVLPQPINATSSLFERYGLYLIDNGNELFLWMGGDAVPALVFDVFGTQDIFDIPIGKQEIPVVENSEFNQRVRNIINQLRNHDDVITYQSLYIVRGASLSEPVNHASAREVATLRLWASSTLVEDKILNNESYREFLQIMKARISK
B3: Protein transport protein SEC23 (Saccharomyces cerevisiae), P15303 (parent)
chain: B1 partner
B4: Protein transport protein SEC23 (Saccharomyces cerevisiae), P15303 (parent)
chain: B1 partner
partner: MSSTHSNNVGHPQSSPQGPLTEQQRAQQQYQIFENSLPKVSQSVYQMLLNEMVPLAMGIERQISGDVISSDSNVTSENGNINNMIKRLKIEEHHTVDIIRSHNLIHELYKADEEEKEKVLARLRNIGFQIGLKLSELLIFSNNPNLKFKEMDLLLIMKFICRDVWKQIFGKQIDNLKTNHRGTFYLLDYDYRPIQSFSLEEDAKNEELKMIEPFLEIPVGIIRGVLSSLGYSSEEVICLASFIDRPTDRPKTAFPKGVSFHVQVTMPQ

Variants of: B1
Conditions: with sec23_yeast SEC23, P15303

effect of a mutation on the interaction	Variant
disrupting interaction	MDLRVGRKFRIGRKIGSGSFGDIYHGTNLISGEEVAIALESIRSRHPQLDYESRVYRYLSGGVGIPFIRWFGREGEYNAMVIDLLGPSLEDLFNYCHRRFSFKTVIMLALQMFCRIQYIHGRSFIHRDIKPDNFLMGVGRRGSTVHVIDFGLSKKYRDFNTHRHIPYRENKSLTGTARYASVNTHLGIEQSRRDDLESLGYVLIYFCKGSLPWQGLKATTKKQKYDRIMEKKLNVSVETLCSGLPLEFQEYMAYCKNLKFDEKPDYLFLARLFKDLSIKLEYHNDHLFDWTMLRYTKAMVEKQRDLLIEKGDLNANSNAASASNSTDNKSETFNKIKLLAMKKFPTHFHYYKNEDKHNPSPEEIKQQTILNNNAASSLPEELLNALDKGMENLRQQQPQQQVQSSQPQPQPQQLQQQPNGQRPNYYPEPLLQQQQRDSQEQQQQVPMATTRATQYPPQINSNNFNTNQASVPPQMRSNPQQPPQDKPAGQSIWL [K38A]

Variants of: B2
Conditions: with sec24_yeast SEC24, P40482

effect of a mutation on the interaction	Variant
disrupting interaction	MDLRVGRKFRIGRKIGSGSFGDIYHGTNLISGEEVAIALESIRSRHPQLDYESRVYRYLSGGVGIPFIRWFGREGEYNAMVIDLLGPSLEDLFNYCHRRFSFKTVIMLALQMFCRIQYIHGRSFIHRDIKPDNFLMGVGRRGSTVHVIDFGLSKKYRDFNTHRHIPYRENKSLTGTARYASVNTHLGIEQSRRDDLESLGYVLIYFCKGSLPWQGLKATTKKQKYDRIMEKKLNVSVETLCSGLPLEFQEYMAYCKNLKFDEKPDYLFLARLFKDLSIKLEYHNDHLFDWTMLRYTKAMVEKQRDLLIEKGDLNANSNAASASNSTDNKSETFNKIKLLAMKKFPTHFHYYKNEDKHNPSPEEIKQQTILNNNAASSLPEELLNALDKGMENLRQQQPQQQVQSSQPQPQPQQLQQQPNGQRPNYYPEPLLQQQQRDSQEQQQQVPMATTRATQYPPQINSNNFNTNQASVPPQMRSNPQQPPQDKPAGQSIWL [K38A]

Variants of: B3
Conditions: with sar1_yeast SAR1, P20606
sar1_yeast SAR1, P20606, sequence (P20606 whole entry): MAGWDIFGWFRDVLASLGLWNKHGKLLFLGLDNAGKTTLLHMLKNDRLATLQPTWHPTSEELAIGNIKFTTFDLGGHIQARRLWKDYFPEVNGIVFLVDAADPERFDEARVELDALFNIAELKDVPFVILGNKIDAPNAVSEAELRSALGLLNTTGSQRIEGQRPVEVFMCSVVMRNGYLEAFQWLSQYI

effect of a mutation on the interaction	Variant
disrupting interaction	S742D
disrupting interaction	T747E
disrupting interaction	S742D;T747E

Variants of: B4
Conditions: with trs33_yeast TRS33, Q99394

effect of a mutation on the interaction	Variant
decreasing interaction	S742D;T747E
